As a reminder, the stoichiometry N is the number of molecules, sites or subunits per partner or assembly.

2 substances from article PMC13582642 can be followed below.

“And” between values parts separate entries of the source, which are not always exact repeats. Equal entries are not always repeated.

In series [1] the target is UV-stressed (aggregated) infliximab. Description: FFF-MALS; asymmetric flow field flow fractionation (Eclipse AF4) with UV, MALS and dRI detectors; mobile phase 0.01 M monopotassium phosphate, 0.0027 M potassium chloride, 0.137 M sodium chloride.
The target is the same in series [2]. As to the kind of experiment: SEC; Agilent Bio SEC-3 column, 25 °C, 50 mM sodium phosphate, 150 mM KCl, 10% isopropanol, pH 6.8; samples at 1 mg/ml; fluorescence detection; percentages from peak areas. For orientation: In gel filtration, larger molecules generally elute earlier.
The target in series [3] is Fc gamma receptor IIa (human (endogenous in moDCs)) (UniProt P12318).
In series [4] the target is macrophage mannose receptor (CD206) (human (endogenous in moDCs)) (UniProt P22897).
Series [5] is described as follows: SEC; Agilent Bio SEC-3 column, 25 °C, 50 mM sodium phosphate, 150 mM KCl, 10% isopropanol, pH 6.8; samples at 1 mg/ml; fluorescence detection; percentages from peak areas.

Chain of UniProt P22897 (P22897 19-1456): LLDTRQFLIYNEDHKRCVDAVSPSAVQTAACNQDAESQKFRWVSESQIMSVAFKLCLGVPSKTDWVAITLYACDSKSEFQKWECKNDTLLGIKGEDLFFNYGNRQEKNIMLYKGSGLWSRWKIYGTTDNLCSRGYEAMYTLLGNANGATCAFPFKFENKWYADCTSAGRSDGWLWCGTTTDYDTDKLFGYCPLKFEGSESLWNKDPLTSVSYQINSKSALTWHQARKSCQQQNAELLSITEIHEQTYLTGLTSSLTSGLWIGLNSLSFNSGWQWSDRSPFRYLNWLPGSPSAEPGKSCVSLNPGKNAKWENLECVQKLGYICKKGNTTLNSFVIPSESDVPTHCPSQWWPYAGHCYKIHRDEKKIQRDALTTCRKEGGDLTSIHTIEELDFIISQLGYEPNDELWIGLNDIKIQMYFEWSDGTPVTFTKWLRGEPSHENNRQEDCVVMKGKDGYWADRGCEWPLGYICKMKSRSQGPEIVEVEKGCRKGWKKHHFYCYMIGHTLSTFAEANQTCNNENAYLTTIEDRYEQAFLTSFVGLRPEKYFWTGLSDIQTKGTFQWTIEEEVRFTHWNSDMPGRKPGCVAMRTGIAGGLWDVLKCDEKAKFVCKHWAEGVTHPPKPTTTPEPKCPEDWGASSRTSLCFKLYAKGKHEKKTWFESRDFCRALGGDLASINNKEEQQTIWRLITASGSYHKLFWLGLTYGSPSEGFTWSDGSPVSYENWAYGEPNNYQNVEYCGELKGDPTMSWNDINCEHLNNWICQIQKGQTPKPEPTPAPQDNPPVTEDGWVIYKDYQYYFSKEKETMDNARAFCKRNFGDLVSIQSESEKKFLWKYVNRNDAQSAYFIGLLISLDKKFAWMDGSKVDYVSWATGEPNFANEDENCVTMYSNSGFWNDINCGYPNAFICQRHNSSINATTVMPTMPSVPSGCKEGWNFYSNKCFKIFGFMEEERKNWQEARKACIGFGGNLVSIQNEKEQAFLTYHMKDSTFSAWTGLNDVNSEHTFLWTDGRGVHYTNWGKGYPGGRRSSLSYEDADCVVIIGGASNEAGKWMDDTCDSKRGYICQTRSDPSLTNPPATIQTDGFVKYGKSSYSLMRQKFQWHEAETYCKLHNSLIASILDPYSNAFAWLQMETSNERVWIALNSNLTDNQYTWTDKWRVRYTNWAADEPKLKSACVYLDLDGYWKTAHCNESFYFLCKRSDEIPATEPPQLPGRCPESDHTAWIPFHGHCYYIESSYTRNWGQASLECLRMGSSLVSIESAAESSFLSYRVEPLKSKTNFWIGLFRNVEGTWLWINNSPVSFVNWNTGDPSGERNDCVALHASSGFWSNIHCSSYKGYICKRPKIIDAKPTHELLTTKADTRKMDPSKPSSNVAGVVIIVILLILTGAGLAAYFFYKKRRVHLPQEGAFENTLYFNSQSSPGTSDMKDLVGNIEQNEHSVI
Chain of UniProt P12318 (P12318 34-317): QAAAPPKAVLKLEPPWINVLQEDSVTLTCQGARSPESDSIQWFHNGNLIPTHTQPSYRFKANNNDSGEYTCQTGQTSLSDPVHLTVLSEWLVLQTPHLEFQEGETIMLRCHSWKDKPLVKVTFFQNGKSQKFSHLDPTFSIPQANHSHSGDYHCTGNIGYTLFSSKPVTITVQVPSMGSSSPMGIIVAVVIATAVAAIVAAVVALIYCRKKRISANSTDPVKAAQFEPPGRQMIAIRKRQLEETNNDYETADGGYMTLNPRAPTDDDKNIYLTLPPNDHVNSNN

In series [1], “UV-stressed (aggregated) infliximab (antibody)” displayed a percent of dimers (FFF-MALS) of 22.4%; a percent of trimers and oligomers (FFF-MALS) of 24.7%. Besides, in series [2], the stoichiometry N was 2 and 3. Also, the reduction of the uptake of AF-488 IFX UV by moDCs after pre-treatment with anti-FcγRIIa Ab (1 µg/ml) in series [3] was 19%. In addition, in series [4], the inhibition of the internalization rate of AF-488 IFX UV by moDCs (flow cytometry, 37 °C minus 4 °C) after pre-treatment with anti-CD206 IgG (10 µg/ml) was determined as 39% and the inhibition of the percentage of moDCs internalizing AF-488 IFX UV after pre-treatment with anti-CD206 IgG (10 µg/ml) was 32%.
As for UV-stressed (aggregated) infliximab, in series [5], the “percent of dimers (ratio of SEC peak areas)” value is on record as 19.27% ± 0.24% dimers and the “percent of trimers (ratio of SEC peak areas)” value is given as 26.19% ± 3.95 trimers.
